{
  "source": "paper PMC3869713",
  "key": {"CHK2 [1]": {"molecular_target": "CHK2 (UniProt O96017)", "sequence (O96017 whole entry)": "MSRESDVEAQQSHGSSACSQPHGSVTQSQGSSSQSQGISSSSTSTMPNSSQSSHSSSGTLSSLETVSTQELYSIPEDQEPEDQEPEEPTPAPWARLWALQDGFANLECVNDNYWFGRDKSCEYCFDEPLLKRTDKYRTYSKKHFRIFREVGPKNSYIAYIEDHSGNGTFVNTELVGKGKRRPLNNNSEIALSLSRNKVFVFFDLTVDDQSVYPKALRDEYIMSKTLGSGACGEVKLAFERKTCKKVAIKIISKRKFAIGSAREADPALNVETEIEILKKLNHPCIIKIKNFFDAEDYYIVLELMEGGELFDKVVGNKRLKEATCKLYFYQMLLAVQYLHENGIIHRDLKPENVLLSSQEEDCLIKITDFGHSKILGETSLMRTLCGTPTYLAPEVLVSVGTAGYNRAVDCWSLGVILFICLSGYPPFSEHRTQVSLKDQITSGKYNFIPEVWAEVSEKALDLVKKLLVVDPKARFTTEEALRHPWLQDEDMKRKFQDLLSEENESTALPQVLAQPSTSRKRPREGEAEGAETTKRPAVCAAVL", "assay": "F-EMSA", "conditions": "25 mM Tris-HCl pH 8.0, 10 mM NaCl, 25 mM KCl, 5 mM MgCl2, 0.01% IGEPAL CA630, 10 ug/ml yeast tRNA, SUPERase-In; 2 nM RNA, room temperature 2 h; F-EMSA on …"}, "CHK2 [2]": {"molecular_target": "CHK2 (UniProt O96017)", "assay": "fluorescence polarization", "conditions": "25 mM Tris-HCl pH 8.0, 10 mM NaCl, 25 mM KCl, 5 mM MgCl2, 0.01% IGEPAL CA630, 10 ug/ml yeast tRNA, SUPERase-In; 2 nM RNA, room temperature 2 h; F-EMSA on …"}},
  "data": [
    {"sequence": "GGGAAUGGAUCCACAUCUACGAAUUCGAUCGGUUCCAACGCUCUGUCGCCUAAGUGAACAGAUGAAGAAAAAAUAGCCCAAUAAGAGGCAACAAUCUUUCACUGCAGACUUGACGAAGCUU [C6M1]", "values": [
      {"measurement": "Kd", "setting": "CHK2 [1]", "result": 180, "unit": "nM"},
      {"measurement": "Kd", "setting": "CHK2 [2]", "result": 299, "unit": "nM"}
    ]}
  ]
}
